Assay [1] concerns the target T1, full-length beta-Catenin (Uniprot ID P35222) (Homo sapiens (Human), UniProt P35222 2-781).
T1 construct: the AlphaScreen assay uses a Histidine (Nickel Chelate) detection kit, so a His tag is likely there; also called B-Catenin; bCat
T1 sequence: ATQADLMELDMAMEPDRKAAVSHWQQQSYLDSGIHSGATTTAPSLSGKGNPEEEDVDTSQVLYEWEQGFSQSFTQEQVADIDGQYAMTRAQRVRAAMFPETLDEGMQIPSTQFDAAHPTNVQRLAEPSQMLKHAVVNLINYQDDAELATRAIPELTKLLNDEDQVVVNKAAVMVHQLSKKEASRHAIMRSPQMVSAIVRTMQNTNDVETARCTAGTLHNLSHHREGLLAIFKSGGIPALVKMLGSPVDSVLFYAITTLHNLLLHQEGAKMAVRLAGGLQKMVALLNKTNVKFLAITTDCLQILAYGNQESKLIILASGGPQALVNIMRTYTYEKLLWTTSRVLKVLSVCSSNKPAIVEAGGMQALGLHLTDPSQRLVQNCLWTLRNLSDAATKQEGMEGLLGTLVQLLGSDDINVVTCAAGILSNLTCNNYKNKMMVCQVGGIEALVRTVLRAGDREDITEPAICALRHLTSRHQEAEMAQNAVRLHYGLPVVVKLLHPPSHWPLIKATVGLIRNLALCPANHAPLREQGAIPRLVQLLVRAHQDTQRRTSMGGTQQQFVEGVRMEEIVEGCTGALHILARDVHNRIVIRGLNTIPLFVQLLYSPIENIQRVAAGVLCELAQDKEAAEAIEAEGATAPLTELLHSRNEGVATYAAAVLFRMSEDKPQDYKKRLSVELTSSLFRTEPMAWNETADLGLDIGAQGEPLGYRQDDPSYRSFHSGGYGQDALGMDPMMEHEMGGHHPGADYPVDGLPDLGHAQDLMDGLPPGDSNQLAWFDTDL
In words: AlphaScreen competition; full-length beta-catenin with biotin-TCF4(10-53) probe as competitor. As to the method:
(§1) Equal volume of the titrated peptide was added to the plate and incubated for 15 minutes at 20° C. Then 4 uL of donor and 4 uL acceptor beads at 10 ug/mL were added to the plate, for a 16 uL reaction pool and protected from light for 60 minutes at 20° C. prior to read. Reads were performed on a CLARIOstar plate reader (BMG Labtech) in duplicate, and data were fitted to a 1:1 binding model with hill slope using an in-house script. All provided concentrations are final concentrations.
On the technique in general: Bead proximity is the source of the signal in Alpha formats.

Assay [2] deals with T2, full-length beta-Catenin (Uniprot ID P35222) (Homo sapiens (Human), UniProt P35222 2-781).
T2 construct: The AlphaScreen assay used a Histidine (Nickel Chelate) detection kit, so a His tag is likely, but no tag is described; also called B-Catenin; bCat
T2 sequence: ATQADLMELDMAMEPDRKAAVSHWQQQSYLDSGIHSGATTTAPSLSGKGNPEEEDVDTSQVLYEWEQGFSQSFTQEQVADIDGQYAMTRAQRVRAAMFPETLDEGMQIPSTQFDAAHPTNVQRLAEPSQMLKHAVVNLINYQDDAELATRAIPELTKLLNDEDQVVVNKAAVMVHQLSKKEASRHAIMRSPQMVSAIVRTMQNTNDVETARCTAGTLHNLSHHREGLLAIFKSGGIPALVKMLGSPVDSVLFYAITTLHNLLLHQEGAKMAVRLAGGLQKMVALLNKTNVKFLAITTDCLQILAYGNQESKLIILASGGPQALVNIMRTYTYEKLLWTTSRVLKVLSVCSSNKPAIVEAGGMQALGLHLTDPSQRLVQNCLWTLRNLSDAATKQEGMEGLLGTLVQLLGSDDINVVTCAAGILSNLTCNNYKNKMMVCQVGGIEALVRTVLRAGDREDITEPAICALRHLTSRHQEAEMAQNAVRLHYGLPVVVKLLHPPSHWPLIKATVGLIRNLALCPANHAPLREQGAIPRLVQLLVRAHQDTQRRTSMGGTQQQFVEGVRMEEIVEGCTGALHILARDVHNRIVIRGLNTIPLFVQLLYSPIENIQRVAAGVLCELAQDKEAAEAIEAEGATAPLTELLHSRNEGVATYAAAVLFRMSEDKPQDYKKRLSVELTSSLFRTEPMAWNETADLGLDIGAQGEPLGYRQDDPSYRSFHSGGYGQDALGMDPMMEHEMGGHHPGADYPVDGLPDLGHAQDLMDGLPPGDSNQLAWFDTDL
The assay can be described thus: AlphaScreen competition: full-length beta-catenin + biotin-TCF4(10-53) probe, peptide titrated. The protocol: as §1

Results on 16 molecules are retold here after patent US20240116985A1 (published 2024).

Starred links: 1 amine or outer side, 2 acyl side, 3 side chain; linkers in the order of their positions; H or OH if unused. Positions of bridges follow the written chain, without caps; N, C: chain ends. Non-standard residues stand in square brackets, D forms with d. Primed or numbered codes have the meaning given here. B5(16) = 2-amino-2-(pent-4-en-1-yl)hept-6-enoic acid = 2,2-bis(4-pentenyl)glycine (stitching residue), C=CCCCC(CCCC=C)(N[*:1])C(=O)[*:2]; B5(4) = 2,2-bis(4-pentenyl)glycine = 2-amino-2-(pent-4-en-1-yl)hept-6-enoic acid (stitching residue), C=CCCCC(CCCC=C)(N[*:1])C(=O)[*:2]; B5(5) = 2,2-bis(4-pentenyl)glycine, 2-amino-2-(pent-4-en-1-yl)hept-6-enoic acid (stitching residue), C=CCCCC(CCCC=C)(N[*:1])C(=O)[*:2]; PyrS(3) = (S)-1-((allyloxy)carbonyl)-3-aminopyrrolidine-3-carboxylic acid, stapling residue, C=CCOC(=O)N1CC[C@@](N[*:1])(C(=O)[*:2])C1; PyrS″ = (S)-1-((allyloxy)carbonyl)-3-aminopyrrolidine-3-carboxylic acid (stapling residue), C=CCOC(=O)N1CC[C@@](N[*:1])(C(=O)[*:2])C1; B5(21) = 2-amino-2-(pent-4-en-1-yl)hept-6-enoic acid, bis(4-pentenyl)glycine (stitching residue), C=CCCCC(CCCC=C)(N[*:1])C(=O)[*:2]; RdN = (R)-4-(((allyloxy)carbonyl)(methyl)amino)-2-amino-2-methylbutanoic acid, C=CCOC(=O)N(C)CC[C@@](C)(N[*:1])C(=O)[*:2]; Trp(5-cPr) = 5-cyclopropyl-L-tryptophan (5CpW), O=C([C@H](Cc1c[nH]c2ccc(C3CC3)cc12)N[*:1])[*:2]; B5 = 2-amino-2-(pent-4-en-1-yl)hept-6-enoic acid, C=CCCCC(CCCC=C)(N[*:1])C(=O)[*:2]; H2Trp = 2,3-dihydrotryptophan (indolin-3-yl alanine); Trp(5-OMe) = COc1ccc2[nH]cc(C[C@H](N)C(=O)O)c2c1; Phe(4-CF3) = N[C@@H](Cc1ccc(C(F)(F)F)cc1)C(=O)O; S7 = C[C@@](CCCCCC=[*:3])(N[*:1])C(=O)[*:2]; Bip = N[C@@H](Cc1ccc(-c2ccccc2)cc1)C(=O)O; αAllylPro = C=CC[C@@]1(C(=O)O)CCCN1; R8 = C=CCCCCCC[C@@](C)(N)C(=O)O; S8 = C=CCCCCCC[C@](C)(N)C(=O)O; Nle = CCCC[C@H](N)C(=O)O; Aib = CC(C)(N)C(=O)O A value given as a limit tells only on which side of the number the result lay.

Regarding Ac-[αAllylPro]DA[B5]DEAAFV[S8]F[Trp(5-cPr)]Q-NH2 (staple 1-4, 4-11, stapled peptide) [I-170], the midpoint of the response in assay [1], the EC50, lay at 4.67 µM.

Ac-[Aib]DA[R8]DEAAFV[PyrS(3)]FWQ-NH2 (staple 4-11; also: later-eluting staple isomer, stapled peptide) [I-158]: the concentration for a half-maximal effect (EC50) in assay [1] stood at 2.17 µM.

B1: I-139 (peptide)
peptide: Ac-[αAllylPro]DA[B5(21)]D[Nle]AAFV[S8]FWQ-NH2
modifications: staple 1-4, 4-11; not fully specified; printed as Ac-PL3-Asp-Ala-B5-Asp-nLeu-Ala-Ala-Phe-Val-S8-Phe-Trp-Gln-NH2
notes: stapled peptide
On to B1, for which the concentration giving a half-maximal response (EC50) in assay [1] is at least 10 µM.

B2: I-163 (peptide)
peptide: Ac-FDA[R8]DDAAFS[PyrS″]FWQ-NH2
modifications: staple 4-11; not fully specified; printed as Ac-Phe-Asp-Ala-R8-Asp-Asp-Ala-Ala-Phe-Ser-PyrS-Phe-Trp-Gln-NH2
notes: stapled peptide
In assay [1], B2 yielded a 50% effective concentration (EC50) of 9.75 µM.

B3: I-137 (peptide)
peptide: XDAXDEAAFVXFXQ
modifications: not fully specified; as printed: Ac-PL3-Asp-Ala-B5-Asp-Glu-Ala-Ala-Phe-Val-S8-Phe-aMeW-Gln-NH2; N-terminal acetyl, C-terminal amide; PL3(1), B5(4), S8(11), aMeW(13); staples PL3-B5 and B5-S8 by olefin metathesis
notes: stapled peptide
For the molecule B3, the EC50 in assay [1] was 1.41 µM.

As for Ac-ADA[RdN]DEAAFQ[S7]FWH-NH2 (staple 4-11, stapled peptide composition) [I-156], the EC50 in assay [1] stood at 4.18 µM.

B4: I-159 (peptide)
peptide: Ac-[Aib]DA[R8]DEAAFV[PyrS″]FW[Aib]-NH2
modifications: staple 4-11; not fully specified; printed as Ac-Aib-Asp-Ala-R8-Asp-Glu-Ala-Ala-Phe-Val-PyrS-Phe-Trp-Aib-NH2
notes: stapled peptide
Turning to B4, the 50% effective concentration (EC50) in assay [1] was 5.35 µM.

Ac-DI[RdN]DDAAFQ[S7]FW-NH2 (staple 3-10, stapled peptide composition) [I-151] returned a concentration for a half-maximal effect (EC50) in assay [1] of 5.5 µM.

As to Ac-[αAllylPro]DA[B5]DEAAFV[S8]F[Bip]Q-NH2 (staple 1-4, 4-11, stapled peptide composition) [I-145], the 50% effective concentration (EC50) in assay [1] is at least 10 µM.

B5: I-138 (peptide)
peptide: Ac-[αAllylPro]DA[B5(4)]D[Nle]AAFV[S8]FWQ-NH2
modifications: staple 1-4, 4-11; not fully specified; printed as Ac-PL3-Asp-Ala-B5-Asp-nLeu-Ala-Ala-Phe-Val-S8-Phe-Trp-Gln-NH2
notes: stapled peptide
Regarding B5, in assay [1], the EC50 is at least 10 µM.

B6: I-136 (peptide)
peptide: XDAXDEAAFVXFXQ
modifications: not fully specified; as printed: Ac-PL3-Asp-Ala-B5-Asp-Glu-Ala-Ala-Phe-Val-S8-Phe-aMeW-Gln-NH2; N-terminal acetyl, C-terminal amide; PL3(1), B5(4), S8(11), aMeW(13); staples PL3-B5 and B5-S8 by olefin metathesis
notes: stapled peptide
In assay [1], B6 yielded an EC50 of 3.3 µM.

B7: I-253 (peptide)
peptide: Ac-[αAllylPro]DA[B5(4)]DDAAFV[S8][Phe(4-CF3)]WQ-NH2
modifications: staple 1-4, 4-11
notes: Stapled peptide composition; also called Ac-PL3-Asp-Ala-B5-Asp-Asp-Ala-Ala-Phe-Val-S8-4F3MeF-Trp-Gln-NH2
In the case of B7, the 50% effective concentration (EC50) in assay [2] was 3.69 µM.

B8: I-243 (peptide)
peptide: Ac-[αAllylPro]DA[B5(5)]DDAA[Phe(4-CF3)]V[S8]FWQ-NH2
modifications: staple 1-4, 4-11; not fully specified; printed as Ac-PL3-Asp-Ala-B5-Asp-Asp-Ala-Ala-4F3MeF-Val-S8-Phe-Trp-Gln-NH2
notes: Stapled peptide composition; also called Ac-PL3-Asp-Ala-B5-Asp-Asp-Ala-Ala-4F3MeF-Val-S8-Phe-Trp-Gln-NH2
Consider B8, for which the EC50 in assay [2] was determined as 4.91 µM.

With Ac-[αAllylPro]DA[B5(16)]DEAAFV[S8]F[Trp(5-OMe)]Q-NH2 (staple 1-4, 4-11, stapled peptide composition) [I-165], a half-maximal response in assay [1] (EC50) required 1.23 µM.

In turn, Ac-[αAllylPro]DA[B5(16)]DEAAFV[S8]F[H2Trp]Q-NH2 (staple 1-4, 4-11, stapled peptide) [I-167] yielded an EC50 in assay [1] of 6.2 µM.

B9: I-242 (peptide)
peptide: Ac-[αAllylPro]DA[B5(5)]DDAA[Phe(4-CF3)]V[S8]FWQ-NH2
modifications: staple 1-4, 4-11; not fully specified; printed as Ac-PL3-Asp-Ala-B5-Asp-Asp-Ala-Ala-4F3MeF-Val-S8-Phe-Trp-Gln-NH2
notes: as for B8
Take B9: the concentration for a half-maximal effect (EC50) in assay [2] was determined as 4.91 µM.

The term EC50 denotes the concentration that produces a half-maximal response.
